{"source": "paper PMC9987375", "key": {"[1]": {"biological_target": "cytoplasmic dynein-1 heavy chain, naturally occurring in Vero cells (African green monkey (endogenous in Vero))", "assay": "proximity ligation; Vero cells infected with ZIKV MR766 at MOI 1, fixed at 12 and 24 h.p.i.; mouse monoclonal anti-E and rabbit polyclonal anti-NTDyn"}, "[2]": {"biological_target": "cytoplasmic dynein-1 heavy chain, naturally occurring in Vero cells (African green monkey (endogenous in Vero))", "assay": "proximity ligation; Vero cells infected with ZIKV MR766 at MOI 1, fixed at 18 h.p.i.; mouse monoclonal anti-E and rabbit polyclonal anti-NTDyn; PLA dots counted in 100 cells"}}}
{"substance": "Zika virus (ZIKV) envelope protein (E), MR766 strain (natural protein)", "values": [{"measurement": "PLA dots per cell (12 and 24 h.p.i.) (PLA dots per cell)", "setting": "[1]", "value": "< 1"}, {"measurement": "PLA dots per cell (18 h.p.i.) (PLA dots per cell)", "setting": "[2]", "value": "> 6"}, {"measurement": "PLA dots per cell (mean, 18 h.p.i.) (PLA dots per cell)", "setting": "[2]", "value": 2.9}]}
